Results from patent publication US20250163167A1 (SYNTHEKINE, published 2025).

B1: IL10R binding molecule of SEQ ID NO: 317 (bispecific antibody)
chain: QVQLQESGGGSVQAGGSLRLSCAASGYTYSSYCMGWFRQAPGKEREGVAHIDSDGSTSYADSVKGRFTISKDNAKNTLYLQMNSLKPEDTAMYYCAADPIPGPGYCDGGPNKYWGQGTQVTVSSGGGSQVQLQESGGGSVQAGGSLRLSCGASGYTYSSYCMGWFRQVPGKEREGVAVIDSDGSTSYADSVKGRFTISKDNGKNTLYLQMNSLKPEDTAMYYCAADLGHYRPPCGVLYLGMDYWGKGTQVTVSSASHHHHHH
B2: IL10R binding molecule of SEQ ID NO: 318 (bispecific antibody)
chain: QVQLQESGGGSVQAGGSLRLSCAASGYTYSSYCMGWFRQAPGKEREGVAHIDSDGSTSYADSVKGRFTISKDNAKNTLYLQMNSLKPEDTAMYYCAADPIPGPGYCDGGPNKYWGQGTQVTVSSGGGSQVQLQESGGGSVQAGGSLRLSCAASGYSNCSYDMTWYRQAPGKEREFVSAIHSDGSTRYADSVKGRFFISQDNAKNTVYLQMNSLKPEDTAMYYCKTDPLHCRAHGGSWYSVRANYWGQGTQVTVSSASHHHHHH
B3: IL10R binding molecule of SEQ ID NO: 319 (bispecific antibody)
chain: QVQLQESGGGSVQAGGSLRLSCAASRYTYNSYCMGWFRQAPGKEREGVATIDSDGMTRYADSVKGRFTISKDNAKNTLYLQMNSLKPEDTAMYYCAADADCTIAAMTTNPLGQGTQVTVSSGGGSQVQLQESGGGSVQAGGSLRLSCAASRYLYSIDYMAWFRQSPGKEREPVAVIYTASGATFYPDSVKGRFTISQDNAKMTVYLQMNSLKSEDTAMYYCAAVRKTDSYLFDAQSFTYWGQGTQVTVSSASHHHHHH
B4: IL10R binding molecule of SEQ ID NO: 261 (bispecific antibody)
chain: QVQLQESGGGSVQAGGSLRLSCAASRYLYSIDYMAWFRQSPGKEREPVAVIYTASGATFYPDSVKGRFTISQDNAKMTVYLQMNSLKSEDTAMYYCAAVRKTDSYLFDAQSFTYWGQGTQVTVSSGGGSQVQLQESGGGSVQAGGSLRLSCAASGYSYSSYCMGWFRQAPGKEREGVATIDSDGMTRYADSVKGRFTISKDNAKNTLYLQMNSLKPEDTAMYYCAAPLYDCDSGAVGRNPPYWGQGTQVTVSSASHHHHHH
B5: IL10R binding molecule of SEQ ID NO: 320 (bispecific antibody)
chain: QVQLQESGGGSVQAGGSLRLSCAASRYTYNSYCMGWFRQAPGKEREGVATIDSDGMTRYADSVKGRFTISKDNAKNTLYLQMNSLKPEDTAMYYCAADADCTIAAMTTNPLGQGTQVTVSSGGGSQVQLQESGGGSVQAGGSLRLSCAASRFTYSSYCMGWFRQAPGKEREGVASIDSDGSTSYTDSVKGRFTISKDNAKNTLYLQMNSLKPEDTAMYYCALDLMSTVVPGFCGFLLSAGMDYWGKGTQVTVSSASHHHHHH
B6: IL10R binding molecule of SEQ ID NO: 321 (bispecific antibody)
chain: QVQLQESGGGSVQAGGSLRLSCAASRYTYNSYCMGWFRQAPGKEREGVATIDSDGMTRYADSVKGRFTISKDNAKNTLYLQMNSLKPEDTAMYYCAADADCTIAAMTTNPLGQGTQVTVSSGGGSQVQLQESGGGSVQAGGSLRLSCAASGYTYSMYCMGWFRQAPGKEREGVAQINSDGSTSYADSVKGRFTISKDNAKNTLYLQMNSLKPEDTAMYYCAADSRVYGGSWYERLCGPYTYEYNYWGQGTQVTVSSASHHHHHH
B7: IL10R binding molecule of SEQ ID NO: 322 (bispecific antibody)
chain: QVQLQESGGGSVQAGGSLRLSCAASRYTYNSYCMGWFRQAPGKEREGVATIDSDGMTRYADSVKGRFTISKDNAKNTLYLQMNSLKPEDTAMYYCAADADCTIAAMTTNPLGQGTQVTVSSGGGSQVQLQESGGGSVQAGGSLRLSCAVSGYAYSTYCMGWFRQAPGKEREGVAAIDSGGSTSYADSVKGRFTISKDNAKNTLYLRMNSLKPEDTAMYYCAAVPPPPDGGSCLFLGPEIKVSKADFRYWGQGTQVTVSSASHHHHHH
B8: IL10R binding molecule of SEQ ID NO: 323 (bispecific antibody)
chain: QVQLQESGGGSVQAGGSLRLSCAASRYTYNSYCMGWFRQAPGKEREGVATIDSDGMTRYADSVKGRFTISKDNAKNTLYLQMNSLKPEDTAMYYCAADADCTIAAMTTNPLGQGTQVTVSSGGGSQVQLQESGGGSVQAGGSLRLSCTVSGYTYSSNCMGWFRQAPGKEREGVATIYTGGGNTYYADSVKGRFTISQDNAKNTVYLQMNNLKPEDTAMYYCAAEPLSRVYGGSCPTPTFDYWGQGTQVTVSSASHHHHHH
B9: IL10R binding molecule of SEQ ID NO: 324 (bispecific antibody)
chain: QVQLQESGGGSVQAGGSLRLSCAASRYTYNSYCMGWFRQAPGKEREGVATIDSDGMTRYADSVKGRFTISKDNAKNTLYLQMNSLKPEDTAMYYCAADADCTIAAMTTNPLGQGTQVTVSSGGGSQVQLQESGGGSVQAGGSLRLSCGASGYTYSSYCMGWFRQVPGKEREGVAVIDSDGSTSYADSVKGRFTISKDNGKNTLYLQMNSLKPEDTAMYYCAADLGHYRPPCGVLYLGMDYWGKGTQVTVSSASHHHHHH
B10: IL10R binding molecule of SEQ ID NO: 325 (bispecific antibody)
chain: QVQLQESGGGSVQAGGSLRLSCAASRYTYNSYCMGWFRQAPGKEREGVATIDSDGMTRYADSVKGRFTISKDNAKNTLYLQMNSLKPEDTAMYYCAADADCTIAAMTTNPLGQGTQVTVSSGGGSQVQLQESGGGSVQAGGSLRLSCAASGYSNCSYDMTWYRQAPGKEREFVSAIHSDGSTRYADSVKGRFFISQDNAKNTVYLQMNSLKPEDTAMYYCKTDPLHCRAHGGSWYSVRANYWGQGTQVTVSSASHHHHHH
B11: IL10R binding molecule of SEQ ID NO: 326 (bispecific antibody)
chain: QVQLQESGGGSVQAGGSLRLSCTVSRYTASVNYMGWFRQAPGKEREGVATIFTGAGTTYYANSVKGRFTISRDNAKNTAYLQMNSLKPEDTAIYYCAVDFRGGLLYRPAYEYTYRGQGTQVTVSSGGGSQVQLQESGGGSVQAGGSLRLSCAASRYLYSIDYMAWFRQSPGKEREPVAVIYTASGATFYPDSVKGRFTISQDNAKMTVYLQMNSLKSEDTAMYYCAAVRKTDSYLFDAQSFTYWGQGTQVTVSSASHHHHHH
B12: IL10R binding molecule of SEQ ID NO: 327 (bispecific antibody)
chain: QVQLQESGGGSVQAGGSLRLSCTVSRYTASVNYMGWFRQAPGKEREGVATIFTGAGTTYYANSVKGRFTISRDNAKNTAYLQMNSLKPEDTAIYYCAVDFRGGLLYRPAYEYTYRGQGTQVTVSSGGGSQVQLQESGGGSVQAGGSLRLSCAASRFTYSSYCMGWFRQAPGKEREGVASIDSDGSTSYTDSVKGRFTISKDNAKNTLYLQMNSLKPEDTAMYYCALDLMSTVVPGFCGFLLSAGMDYWGKGTQVTVSSASHHHHHH
B13: IL10R binding molecule of SEQ ID NO: 328 (bispecific antibody)
chain: QVQLQESGGGSVQAGGSLRLSCTVSRYTASVNYMGWFRQAPGKEREGVATIFTGAGTTYYANSVKGRFTISRDNAKNTAYLQMNSLKPEDTAIYYCAVDFRGGLLYRPAYEYTYRGQGTQVTVSSGGGSQVQLQESGGGSVQAGGSLRLSCAASGYTYSMYCMGWFRQAPGKEREGVAQINSDGSTSYADSVKGRFTISKDNAKNTLYLQMNSLKPEDTAMYYCAADSRVYGGSWYERLCGPYTYEYNYWGQGTQVTVSSASHHHHHH
B14: IL10R binding molecule of SEQ ID NO: 329 (bispecific antibody)
chain: QVQLQESGGGSVQAGGSLRLSCTVSRYTASVNYMGWFRQAPGKEREGVATIFTGAGTTYYANSVKGRFTISRDNAKNTAYLQMNSLKPEDTAIYYCAVDFRGGLLYRPAYEYTYRGQGTQVTVSSGGGSQVQLQESGGGSVQAGGSLRLSCAVSGYAYSTYCMGWFRQAPGKEREGVAAIDSGGSTSYADSVKGRFTISKDNAKNTLYLRMNSLKPEDTAMYYCAAVPPPPDGGSCLFLGPEIKVSKADFRYWGQGTQVTVSSASHHHHHH
B15: IL10R binding molecule of SEQ ID NO: 262 (bispecific antibody)
chain: QVQLQESGGGSVQAGGSLRLSCAASRYLYSIDYMAWFRQSPGKEREPVAVIYTASGATFYPDSVKGRFTISQDNAKMTVYLQMNSLKSEDTAMYYCAAVRKTDSYLFDAQSFTYWGQGTQVTVSSGGGSQVQLQESGGGSVQTGGSLRLSCAASGYTYLRGCMGWFRQAPGKEREGVAVMDVVGDRRSYIDSVKGRFTISRDNAANSVYLQMDNLKPEDTAMYYCTAGPNCVGWRSGLDYWGQGTQVTVSSASHHHHHH
B16: IL10R binding molecule of SEQ ID NO: 330 (bispecific antibody)
chain: QVQLQESGGGSVQAGGSLRLSCTVSRYTASVNYMGWFRQAPGKEREGVATIFTGAGTTYYANSVKGRFTISRDNAKNTAYLQMNSLKPEDTAIYYCAVDFRGGLLYRPAYEYTYRGQGTQVTVSSGGGSQVQLQESGGGSVQAGGSLRLSCTVSGYTYSSNCMGWFRQAPGKEREGVATIYTGGGNTYYADSVKGRFTISQDNAKNTVYLQMNNLKPEDTAMYYCAAEPLSRVYGGSCPTPTFDYWGQGTQVTVSSASHHHHHH

Biological target: T1, human IL-10 receptor (hIL-10R alpha and beta chains) on HEK-Blue IL-10 reporter cells (human, UniProt Q13651 22-578; Q08334 20-325)
T1 sequence 1: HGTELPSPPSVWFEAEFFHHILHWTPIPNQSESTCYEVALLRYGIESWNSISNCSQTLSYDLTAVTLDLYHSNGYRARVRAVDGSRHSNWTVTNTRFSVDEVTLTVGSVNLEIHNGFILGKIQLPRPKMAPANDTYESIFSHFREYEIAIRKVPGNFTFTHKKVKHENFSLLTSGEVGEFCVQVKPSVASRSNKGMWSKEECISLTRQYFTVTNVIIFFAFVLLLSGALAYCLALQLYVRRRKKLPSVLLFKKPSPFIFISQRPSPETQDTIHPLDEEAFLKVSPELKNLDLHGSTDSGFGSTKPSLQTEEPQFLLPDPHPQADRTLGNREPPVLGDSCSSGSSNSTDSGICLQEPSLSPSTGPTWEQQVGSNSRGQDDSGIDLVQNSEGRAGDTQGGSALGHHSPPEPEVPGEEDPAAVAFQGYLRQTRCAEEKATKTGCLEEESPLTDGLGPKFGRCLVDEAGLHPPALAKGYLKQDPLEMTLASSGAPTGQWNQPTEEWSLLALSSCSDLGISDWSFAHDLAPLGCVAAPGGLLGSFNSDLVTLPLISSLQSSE
T1 sequence 2: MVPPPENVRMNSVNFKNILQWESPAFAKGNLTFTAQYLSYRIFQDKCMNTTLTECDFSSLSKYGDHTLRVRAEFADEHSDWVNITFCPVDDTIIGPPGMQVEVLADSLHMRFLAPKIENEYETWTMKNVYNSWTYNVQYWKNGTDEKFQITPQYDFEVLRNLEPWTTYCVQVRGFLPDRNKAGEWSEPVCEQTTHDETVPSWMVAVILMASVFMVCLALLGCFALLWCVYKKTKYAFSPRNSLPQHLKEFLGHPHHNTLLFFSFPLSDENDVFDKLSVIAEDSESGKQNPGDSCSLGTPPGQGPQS
Assay: cell-based or functional assay

Binder | Abs 630 (25 nM) [Abs 630] | Abs 630 (100 nM) [Abs 630]
B1 | 0.45 | 0.38
B2 | 0.5 | 0.45
B3 | 0.47 | 0.36
B4 | 0.44 | 0.34
B5 | 0.54 | 0.41
B6 | 0.46 | 0.4
B7 | 0.46 | 0.41
B8 | 0.64 | 0.38
B9 | 0.61 | 0.44
B10 | 0.49 | 0.42
B11 | 0.47 | 0.56
B12 | 0.52 | 0.54
B13 | 0.44 | 0.34
B14 | 0.48 | 0.39
B15 | 1.38 | 0.4
B16 | 0.45 | 0.36
